Molecular target: the molecule itself
Test: near-TIRF microscopy

B1: Saccharomyces cerevisiae septin complex (Cdc3, Cdc10, Cdc11, Cdc12), polymerizable hetero-oligomer (complex)
chain 1: MSLKEEQVSIKQDPEQEERQHDQFNDVQIKQESQDHDGVDSQYTNGTQNDDSERFEAAESDVKVEPGLGMGITSSQSEKGQVLPDQPEIKFIRRQINGYVGFANLPKQWHRRSIKNGFSFNLLCVGPDGIGKTTLMKTLFNNDDIEANLVKDYEEELANDQEEEEGQGEGHENQSQEQRHKVKIKSYESVIEENGVKLNLNVIDTEGFGDFLNNDQKSWDPIIKEIDSRFDQYLDAENKINRHSINDKRIHACLYFIEPTGHYLKPLDLKFMQSVYEKCNLIPVIAKSDILTDEEILSFKKTIMNQLIQSNIELFKPPIYSNDDAENSHLSERLFSSLPYAVIGSNDIVENYSGNQVRGRSYPWGVIEVDNDNHSDFNLLKNLLIKQFMEELKERTSKILYENYRSSKLAKLGIKQDNSVFKEFDPISKQQEEKTLHEAKLAKLEIEMKTVFQQKVSEKEKKLQKSETELFARHKEMKEKLTKQLKALEDKKKQLELSINSASPNVNHSPVPTKKKGFLR
chain 2: MDPLSSVQPASYVGFDTITNQIEHRLLKKGFQFNIMVVGQSGLGKSTLINTLFASHLIDSATGDDISALPVTKTTEMKISTHTLVEDRVRLNINVIDTPGFGDFIDNSKAWEPIVKYIKEQHSQYLRKELTAQRERFITDTRVHAILYFLQPNGKELSRLDVEALKRLTEIANVIPVIGKSDTLTLDERTEFRELIQNEFEKYNFKIYPYDSEELTDEELELNRSVRSIIPFAVVGSENEIEINGETFRGRKTRWSAINVEDINQCDFVYLREFLIRTHLQDLIETTSYIHYEGFRARQLIALKENANSRSSAHMSSNAIQR
chain 3: MSGIIDASSALRKRKHLKRGITFTVMIVGQSGSGRSTFINTLCGQQVVDTSTTILLPTDTSTEIDLQLREETVELEDDEGVKIQLNIIDTPGFGDSLDNSPSFEIISDYIRHQYDEILLEESRVRRNPRFKDGRVHCCLYLINPTGHGLKEIDVEFIRQLGSLVNIIPVISKSDSLTRDELKLNKKLIMEDIDRWNLPIYNFPFDEDEISDEDYETNMYLRTLLPFAIIGSNEVYEMGGDVGTIRGRKYPWGILDVEDSSISDFVILRNALLISHLHDLKNYTHEILYERYRTEALSGESVAAESIRPNLTKLNGSSSSSTTTRRNTNPFKQSNNINNDVLNPASDMHGQSTGENNETYMTREEQIRLEEERLKAFEERVQQELLLKRQELLQREKELREIEARLEKEAKIKQEE
chain 4: MSAATATAAPVPPPVGISNLPNQRYKIVNEEGGTFTVMLCGESGLGKTTFINTLFQTVLKRADGQQHRQEPIRKTVEIDITRALLEEKHFELRVNVIDTPGFGDNVNNNKAWQPLVDFIDDQHDSYMRQEQQPYRTKKFDLRVHAVLYFIRPTGHGLKPIDIETMKRLSTRANLIPVIAKADTLTAQELQQFKSRIRQVIEAQEIRIFTPPLDADSKEDAKSGSNPDSAAVEHARQLIEAMPFAIVGSEKKFDNGQGTQVVARKYPWGLVEIENDSHCDFRKLRALLLRTYLLDLISTTQEMHYETYRRLRLEGHENTGEGNEDFTLPAIAPARKLSHNPRYKEEENALKKYFTDQVKAEEQRFRQWEQNIVNERIRLNGDLEEIQGKVKKLEEQVKSLQVKKSHLK
binding result: binds

From publication doi:10.1101/2022.05.16.492121 (bioRxiv, 2022)
